This note sets out measurements from patent publication US20240040982, “CEREAL GRAIN WITH THICKENED ALEURONE” (Commonwealth Scientific and Industrial Research Organisation, published 2024).

For the data set, the target named is T1, TA1 (OsmtSSB-1a) (Oryza sativa).
T1 chain: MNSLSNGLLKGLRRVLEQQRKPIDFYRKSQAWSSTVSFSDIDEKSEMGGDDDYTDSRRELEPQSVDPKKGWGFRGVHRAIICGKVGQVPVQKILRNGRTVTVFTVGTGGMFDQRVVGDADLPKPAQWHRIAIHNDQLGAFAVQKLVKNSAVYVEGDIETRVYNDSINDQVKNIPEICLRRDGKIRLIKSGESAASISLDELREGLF
The data set is described as follows: EMSA; 2 ug protein, 750 amol probe, room temperature 10 min; competed by 2x, 20x, 200x unlabelled ssDNA. The note with it: tags: N-terminal 6xHis (pET-30a), expressed in E. coli; label: 3' biotin (biotinylated CTP). As for the experimental part: The affinity of purified 6×His-TA1 protein for ssDNA was determined using an EMSA (Thermo Cat. No. 20148X) as described in general terms by Reddy et al. (2001). A 45-nucleotide single-stranded oligonucleotide (SEQ ID NO:60) was labelled at the 3′ end with biotinylated CTP (Thermo Cat. No. 89818) according to the manufacturer's instructions. Recombinant 6×His-TA1 protein (2 μg) was added to 750 attomoles of biotin-labelled oligonucleotide and the mixture was incubated at room temperature for 10 min. A control sample lacked the 6×His-TA1 protein was applied to lane 1 in FIG. 11. Separate reactions were carried out in the presence of a 60-bp double-stranded DNA (dsDNA; control fragment from Thermo EMSA kit) to determine if the mobility shift was specific for ssDNA. Binding reaction products were separated by electrophoresis in a 5% native polyacrylamide gel in 0.5×TBE (Bio-Rad) and transferred to a nylon membrane (Bio-Rad). DNA bands were visualized using streptavidin-conjugated horseradish peroxidase (Thermo).

On to ACTCCCTCTCCCTTGCGGATTCGAATGGTAGTACATTCTCTTCGA (ssDNA) [45-nt EMSA ssDNA probe], for which the binding result is given as “binds”.
